The values that follow come from patent publication US20180284123A1 (CALIFORNIA INSTITUTE OF TECHNOLOGY, published 2018).

For orientation: EC50 means the concentration at which the effect is half-maximal. High values mean lower potency in that assay, low ones higher potency in that assay.

Assay [1] addresses T1, His6-tagged human KRas Isoform 4B (residues 1-169) (human, UniProt P01116-2 1-169).
T1 construct: Expressed in E. coli BL21(DE3), purified on Ni-NTA; also called KRas protein; WT KRas protein; not shown: His6 tag from the PQE80 vector
Kind of assay: B-RAP surface immunofluorescence assay; ligand on barcode via SAC-DNA, KRas titrated 0-400 µM. The protocol: After extraction the data is background corrected. The background signal arises from (a) non-specific binding of the primary and secondary antibodies (independent of [KRas]), but can vary across different barcode stripes), and (b) non-specific binding of KRas protein ([KRas] dependent). Background (a) was assessed by measuring the average signal in the null protein well for each stripe. Background (b) was assessed by measuring the average fluorescence for the dummy ligand (Biotin* probe) that was in each well. The background subtracted data was then graphed in Graphpad Prism 7 and fitted to a sigmoidal curve (Hill coefficient=1).
A pre-fabricated PDMS template was aligned onto the DNA barcode microchip, and the microchip was taped into a 10 cm petri dish. The wells on the platform were wet with 50 μL PBST before filling with blocking buffer and placing into a 37° C. incubator for 1 hr. Concurrently, 40 μL 1% BSA in PBS solutions containing 750 nM of a SAC-DNA conjugate and 3.75 μM of one biotinylated PCC ligand or biotin-A₂₀-Cy3 blank were prepared for each SAC-DNA conjugate. The biotinylated ligands were allowed to complex with the SAC protein for one hour before pooling the SAC-DNA-ligand solutions (final [SAC-DNA-ligand conjugates]=50 nM). The blocking buffer was aspirated and each well was loaded with the SAC-DNA-ligand conjugates cocktail for hybridization with the DNA barcode at 37° C. for one hour. The wells were washed with PBST (3×) before loading serially diluted solutions of KRas protein in protein buffer (0 to 400 μM). After shaking at RT for one hour, the wells were rinsed with PBST (5×), making sure to pipet up/down with the first addition of PB ST. A (100:1) dilution of CST rabbit anti-Ras Ab (#39655) in 1° ab buffer was added to each well before shaking at RT for one hour. After rinsing the wells with PBST (3×), the wells were loaded with a (200:1) dilution of Abcam goat anti-rabbit-Alexafluor 647 linked ab (ab150079) in 2° ab buffer before shaking at RT for one hour. A final rinse of the wells with PBST (3×) proceeded peeling off the PDMS slab from the barcode microchip and dipping the barcode into the following solutions: PBS, (1:1) PBS: MQ H₂O, MQ H₂O (2×). After being spun dry, the barcode was read on the Genepix (635 nm, PMT 600, PWR 40% (60 W); 532 nm, PMT 450, PWR 15% (23 W)).

In assay [2] the target is T1, His6-tagged human KRas Isoform 4B …. The experiment in a line: multi-well sandwich ELISA; ligand on Neutravidin plate, KRas 0-300 µM. The protocol:
(§1) A 96-well Pierce Neutravidin Plate was washed with binding buffer (3×5 minutes at RT) before loading plate with a 1 μM solution of either blank (biotin-PEG₅-NHAc) (singly) or biotinylated PCC ligand (in triplicate). The plate incubated for two hours before washing with binding buffer (3×5 minutes). Blocking buffer was added to each well and the plate blocked for one hour before undergoing washing with binding buffer (3×5 minutes). Each well was loaded with either binding buffer or KRas solution (0→300 μM), and the plate was incubated for 30 minutes. Plate washing with binding buffer (3×5 minutes) preceded incubating the plate with a (1000:1) dilution of 1° antibody (ab) rabbit anti-Ras (CST #3965) in ab buffer for thirty minutes. The plate was washed with binding buffer (3×5 minutes), loaded with a (2000:1) dilution of 2° ab goat anti-rabbit, HRP-linked ab (CST #7074) in ab buffer, and incubated for an additional thirty minutes. The plate was rinsed with binding buffer (3×5 minutes), TBS (1×5 minutes), loaded with a (1:1) mixture of TMB Peroxidase Solution and TMB Peroxidase Solution B, and developed with occasional agitation for 8-12 minutes. After quenching the enzymatic reaction with 1M H₂SO_{4(aq)} (100 μL) the plate was read at λ=450 nm within ten minutes. The data was double background corrected using the ab only absorbance and the dummy ligand absorbance, plotted using Prism GraphPad 7 (Sigmoidal 4PL mode with the Hill coefficient set=1), and an EC₅₀ value was calculated.
A general note: An ELISA detects its analyte on a solid surface through an enzyme-linked reagent.

The target is the same in assay [3]. The experiment in a line: barcoded rapid assay microchip, fitted curves of FIG. 6B (Hill coefficient 1), triplicate.
The target is the same in assay [4]. Kind of assay: multi-well sandwich ELISA; ligand on Neutravidin plate, KRas 0-300 µM; footnote b: poorly resolved. The protocol:
as §1

Assay [5] has the same target. The experiment in a line: B-RAP immunofluorescence, 10 µM KRas well, pixel-by-pixel along the barcode lane.

Ends that are not written are not given here.

B1: L8 (peptide)
peptide: TDNFY
modifications: triazole (positions not given here); not fully specified (bridges); also: macrocycle closed by 1,4-triazole, propargylglycine click handle, other ring residues not given here
notes: also called TDNFY
On to B1, for which the EC50 is 2.8 µM in assay [1], 25.6 µM in assay [2] and 8.44 µM in assay [3].

B2: L1b (peptide)
peptide: HGIVG
modifications: triazole (positions not given here); not fully specified (bridges); also: 1,4-triazole macrocycle, ring places not given here, propargylglycine click handle, place not given here, biotinylated (biotin NovaTag resin), site not given here
notes: Second HPLC fraction; also called HGIVG f2
Turning to B2, the EC50 in assay [1] came out at 1.33 µM; in assay [4] it was 760 nM; in assay [3], 12.2 µM.

B3: L5b (peptide)
peptide: VEVYP
modifications: triazole (positions not given here); not fully specified (bridges); also: 1,4-triazole macrocycle, ring places not given here, propargylglycine click handle, place not given here, biotinylated (biotin NovaTag resin), site not given here
notes: also called VEVYP f2
As to B3, the 50% effective concentration (EC50) in assay [1] turned out to be 7.8 µM; in assay [2], 6.87 µM.

B4: L5a (peptide)
peptide: VEVYP
modifications: triazole (positions not given here); not fully specified (bridges); also: 1,4-triazole macrocycle, ring places not given here, propargylglycine click handle, place not given here, biotinylated (biotin NovaTag resin), site not given here
notes: also called VEVYP f1
On to B4, for which the concentration giving a half-maximal response (EC50) is 5.23 µM in assay [1] and 3720 nM in assay [4].

B5: L1a (peptide)
peptide: HGIVG
modifications: triazole (positions not given here); not fully specified (bridges); also: 1,4-triazole macrocycle, ring places not given here, propargylglycine click handle, place not given here, biotinylated (biotin NovaTag resin), site not given here
notes: It is one of two HPLC fractions of the same mass; also called HGIVG f1
Regarding B5, the concentration for a half-maximal effect (EC50) is 0.97 µM in assay [1], 1650 nM in assay [4] and 16.2 µM in assay [3].

B6: L4a (peptide)
peptide: VEVPY
modifications: triazole (positions not given here); not fully specified (bridges); also: 1,4-triazole macrocycle, ring places not given here, propargylglycine click handle, place not given here, biotinylated (biotin NovaTag resin), site not given here
notes: also called VEVPY f1
As for B6, the EC50 in assay [3] was determined as 19.6 µM.

B7: L7b (peptide)
peptide: VQVPY
modifications: triazole (positions not given here); not fully specified (bridges); also: 1,4-triazole macrocycle, ring places not given here, propargylglycine click handle, place not given here, biotinylated (biotin NovaTag resin), site not given here
notes: also called VQVPY f2
In the case of B7, the EC50 came to 44.2 µM in assay [2] and 30.3 µM in assay [3].

B8: L6 (peptide)
peptide: VTVPY
modifications: triazole (positions not given here); not fully specified (bridges); also: macrocycle closed by 1,4-triazole, propargylglycine click handle, other ring residues not given here
notes: also called VTVPY
As to B8, in assay [5], the “Avg F635 (full centroid)” value was 17800, the “Avg F635 (full lane)” value was 16000, the “avg F635 (left part centroid)” value worked out at 15600 and the “avg F635 (middle part centroid)” value is 19400. Also, the “avg F635 (right part centroid)” value in assay [5] is 18500. In assay [1], this molecule had an EC50 of 18.9 µM. Moreover, a half-maximal effect in assay [4] (EC50) was put at 159000 nM. Further, in assay [3], the EC50 was 16 µM.

B9: L7a (peptide)
peptide: VQVPY
modifications: triazole (positions not given here); not fully specified (bridges); also: 1,4-triazole macrocycle, ring places not given here, propargylglycine click handle, place not given here, biotinylated (biotin NovaTag resin), site not given here
notes: also called VQVPY f1
For the molecule B9, the EC50 in assay [2] came out at 25.8 µM; in assay [3], 31.5 µM.

B10: L3a (peptide)
peptide: GEVVP
modifications: triazole (positions not given here); not fully specified (bridges); also: 1,4-triazole macrocycle, ring places not given here, propargylglycine click handle, place not given here, biotinylated (biotin NovaTag resin), site not given here
notes: also called GEVVP f1
As to B10, the results for the EC50 in assay [2] and in assay [3] were 7.78 µM and 53.3 µM, respectively.

B11: L4b (peptide)
peptide: VEVPY
modifications: triazole (positions not given here); not fully specified (bridges); also: 1,4-triazole macrocycle, ring places not given here, propargylglycine click handle, place not given here, biotinylated (biotin NovaTag resin), site not given here
notes: also called VEVPY f2
In turn, B11 displayed a 50% effective concentration (EC50) in assay [3] of 32.7 µM.

B12: L3b (peptide)
peptide: GEVVP
modifications: triazole (positions not given here); not fully specified (bridges); also: 1,4-triazole macrocycle, ring places not given here, propargylglycine click handle, place not given here, biotinylated (biotin NovaTag resin), site not given here
notes: also called GEVVP f2
On to B12, for which a half-maximal response in assay [3] (EC50) required 19.4 µM.
